One data set concerns the target T1, Human TOPIB (Homo sapiens, UniProt P11387).
T1 construct: gene TOP1
T1 sequence (P11387 2-765): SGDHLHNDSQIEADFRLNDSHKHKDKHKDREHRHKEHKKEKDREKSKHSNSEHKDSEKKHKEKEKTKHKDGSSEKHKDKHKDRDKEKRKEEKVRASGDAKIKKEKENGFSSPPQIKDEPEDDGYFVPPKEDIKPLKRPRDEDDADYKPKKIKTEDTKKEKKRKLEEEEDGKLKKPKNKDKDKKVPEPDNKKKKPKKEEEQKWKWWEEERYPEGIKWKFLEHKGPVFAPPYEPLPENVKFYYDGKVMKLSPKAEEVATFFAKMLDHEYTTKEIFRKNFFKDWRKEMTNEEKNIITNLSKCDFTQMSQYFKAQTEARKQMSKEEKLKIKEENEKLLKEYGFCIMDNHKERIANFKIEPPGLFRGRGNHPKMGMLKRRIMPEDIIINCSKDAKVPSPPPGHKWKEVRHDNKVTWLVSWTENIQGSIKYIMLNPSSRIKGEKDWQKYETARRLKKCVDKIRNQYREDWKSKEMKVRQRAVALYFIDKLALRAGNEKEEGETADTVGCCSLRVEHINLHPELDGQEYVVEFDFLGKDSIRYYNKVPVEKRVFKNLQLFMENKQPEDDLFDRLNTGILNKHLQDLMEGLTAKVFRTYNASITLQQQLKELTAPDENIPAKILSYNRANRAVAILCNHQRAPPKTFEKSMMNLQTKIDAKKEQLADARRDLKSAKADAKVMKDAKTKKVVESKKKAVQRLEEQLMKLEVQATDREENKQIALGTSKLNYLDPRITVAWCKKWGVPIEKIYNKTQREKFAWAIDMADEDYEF
The data set can be described thus: plasmid DNA relaxation assay with commercial human TOPIB, […] drug (Fig. S3C). The format is biochemical.

Data set [1] addresses T2, LdTOPIA (Leishmania donovani DNA topoisomerase IA) (Leishmania donovani, UniProt A0A3S7WW83).
T2 construct: gene LdCL_210006600; full length, 7xHis-LdTOPIA-6xHis (809 aa), expressed in L. tarentolae LtT7TR
T2 sequence (A0A3S7WW83 1-809): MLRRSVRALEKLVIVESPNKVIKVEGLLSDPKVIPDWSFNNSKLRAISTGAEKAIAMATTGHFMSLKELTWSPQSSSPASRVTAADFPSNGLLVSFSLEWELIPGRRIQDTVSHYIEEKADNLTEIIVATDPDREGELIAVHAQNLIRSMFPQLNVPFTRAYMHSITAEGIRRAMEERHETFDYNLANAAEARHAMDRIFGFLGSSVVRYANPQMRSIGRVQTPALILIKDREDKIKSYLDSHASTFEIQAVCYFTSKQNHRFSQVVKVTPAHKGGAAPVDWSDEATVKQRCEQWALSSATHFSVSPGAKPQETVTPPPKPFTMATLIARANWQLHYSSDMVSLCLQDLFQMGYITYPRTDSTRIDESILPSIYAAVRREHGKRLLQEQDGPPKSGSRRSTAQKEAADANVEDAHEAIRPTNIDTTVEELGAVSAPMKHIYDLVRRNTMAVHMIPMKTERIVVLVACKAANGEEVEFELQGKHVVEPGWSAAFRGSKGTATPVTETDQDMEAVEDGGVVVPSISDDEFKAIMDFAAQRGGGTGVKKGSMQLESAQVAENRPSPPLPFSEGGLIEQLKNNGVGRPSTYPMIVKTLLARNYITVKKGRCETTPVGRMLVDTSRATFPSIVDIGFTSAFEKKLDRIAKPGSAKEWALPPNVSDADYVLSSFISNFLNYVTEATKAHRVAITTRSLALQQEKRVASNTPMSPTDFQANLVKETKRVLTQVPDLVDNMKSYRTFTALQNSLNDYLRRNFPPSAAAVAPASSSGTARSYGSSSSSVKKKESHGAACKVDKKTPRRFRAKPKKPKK
The data set can be described thus: plasmid DNA relaxation assay with purified LdTOPIA ([…] drug), agarose gel. Format: biochemical.

The target in data set [2] is T3, LdTOPIA (DNA topoisomerase IA) (Leishmania donovani DD8, UniProt A0A3S7WW83 1-809).
T3 sequence: T2 sequence (A0A3S7WW83 1-809)
The data set can be described thus: fluorescence anisotropy; 30 nM DNA, 0.5 mM EDTA; 50 mM Tris pH 7.5, 100 mM NaCl, 0.5 mM DTT, 0.5 mM EDTA, 5% glycerol, 15 min, 25 °C (EMSA gel at 4 °C). The following applies: protein: recombinant, tags: N-term 7xHis, C-term 6xHis.

Data set [3] addresses T3, LdTOPIA (DNA topoisomerase IA). In words: fluorescence anisotropy; 50 mM Tris pH 7.5, 100 mM NaCl, 0.5 mM DTT, 0.5 mM EDTA, 5% glycerol, 15 min, 25 °C (EMSA gel at 4 °C). Particulars: protein: recombinant; tags: N-term 7xHis, C-term 6xHis; label: 5' FAM on RNA strand; blunt.
In data set [4] the target is T4, RNase H I, catalytically inactive D210N (Homo sapiens, UniProt O60930 1-286, D210N).
T4 sequence: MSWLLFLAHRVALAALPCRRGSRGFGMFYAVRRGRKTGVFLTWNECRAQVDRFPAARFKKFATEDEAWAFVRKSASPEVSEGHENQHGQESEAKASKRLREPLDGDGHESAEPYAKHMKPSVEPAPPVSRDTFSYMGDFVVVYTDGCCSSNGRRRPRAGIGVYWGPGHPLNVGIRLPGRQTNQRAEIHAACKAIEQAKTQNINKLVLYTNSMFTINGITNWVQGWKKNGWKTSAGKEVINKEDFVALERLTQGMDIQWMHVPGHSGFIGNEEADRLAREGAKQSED
The data set can be described thus: fluorescence anisotropy; 30 nM duplex, 2-200 nM protein; 50 mM Tris pH 7.5, 100 mM NaCl, 0.5 mM DTT, 0.5 mM EDTA, 5% glycerol, 15 min, 25 °C (EMSA gel at 4 °C). Particulars: protein: recombinant; tags: His (pET15b; Ni-NTA purified); label: 5' FAM on RNA strand; blunt. Background: In fluorescence polarisation assays a small probe gives low polarisation when free and higher when bound to something large.

By Kd is commonly meant the constant that tells how readily two partners part at equilibrium.

In the case of `CC[C@@]1(O)C(=O)OCc2c1cc1n(c2=O)Cc2cc3ccccc3nc2-1` [CPT, Camptothecin], the “plasmid DNA relaxation assay with commercial human TOPIB, 10 μM drug (Fig. S3C)” value on Human TOPIB was “Etoposide and CPT could effectively inhibit plasmid relaxation of the TOPIB and TOPII respectively (Fig. S3C)”.
With `CN(C)CCCN1c2ccccc2CCc2ccccc21` [imipramine], the “plasmid DNA relaxation assay with purified LdTOPIA (10, 20 and 40 μM drug), agar” value in data set [1] was “Both imipramine and norclomipramine (NCL) could inhibit the DNA relaxation by LdTOPIA”.
Regarding TATTGGGCGCTCTTCCGCTTCCTCGCTCACTG (ssDNA) [32-nt ssDNA, FAM], the Kd in data set [2] (label: 5' FAM) was determined as 3.16 ± 0.12 nM.

B1: 32-bp dsDNA, FAM (dsDNA)
DNA 1: TATTGGGCGCTCTTCCGCTTCCTCGCTCACTG
DNA 2: CAGTGAGCGAGGAAGCGGAAGAGCGCCCAATA
In the case of B1, the Kd in data set [2] (label: 5' FAM on strand 1, blunt) is 8.1 ± 0.23 nM.

B2: DNA:RNA duplex, FAM-RNA (DNA:RNA)
RNA: UAUUGGGCGCUCUUCCGCUUCCUCGCUCACUG
DNA: B1 DNA 2
Consider B2, for which the binding result in data set [3] is on record as “no binding”; in data set [4], “binds”.

Source of the values: PMC11021369, “Resolving the polycistronic aftermath: Essential role of topoisomerase IA in preventing R-loops in Leishmania” (The Journal of Biological Chemistry, 2024).
